Patent US20080076824A1, “Compounds That Inhibit Replication Of Human Immunodeficiency Virus” (priority 2004, published 2008)

How the values were obtained:
Assay type in all cases: biochemical
[1] = substrate: NCC(=O)N1CCC[C@H]1C(=O)NCC(N)=O; assay: Conversion of [14C]GPG-NH2 to G-NH2 by fetal bovine serum; details: other: derived from GPG-NH2 disappearance curves; pH 3.5
Description: (§1) Next, the conversion of radiolabeled [^14C]GPG-NH2 to [^14C]G-NH2 by purified CD26, fetal bovine serum (FBS), human serum (HS) and CEM cell suspensions was analyzed. Radiolabeled [^14C]GPG-NH2 (radiospecificity: 58 mCi/mmol), in which the radiolabeled carbon is located in the main chain carbon of the glycine at the carboxylic acid end of the tripeptide, and [^14C]G-NH2 (radiospecificity: 56 mCi/mmol) in which carbon-2 was radiolabeled were synthesized by Amersham Pharmacia Biotech (Buckinghamshire, England). A variety of these [^14C]GPG-NH2 concentrations were exposed to purified CD26, FBS, HS and CEM cell suspensions and the conversion to G-NH2 was analyzed.
(§2) In another set of experiments, after one hour of exposure, disappearance of intact [^14C]GPG-NH2 was determined by HPLC analysis, as described above, using a cation-exchange Partisphere SCX column and a sodium phosphate buffer gradient at pH 3.5. GPG-NH2 was well-separated from G-NH2 (retention times: 25-27 min and 15-17 min, respectively). […] The GPG-NH2 conversion by the CEM cell suspensions proceeded linearly up to 1.5 mM. Only at higher GPG-NH2 concentrations (e.g., 3 and 5.4 mM), did the conversion curve for the CEM cell suspensions start to level-off slightly.

[2] = substrate: NCC(=O)N1CCC[C@H]1C(=O)NCC(N)=O; assay: Conversion of [14C]GPG-NH2 to G-NH2 by human serum; details: other: derived from GPG-NH2 disappearance curves; pH 3.5
Description: as §1, §2

[3] = substrate: NCC(=O)N1CCC[C@H]1C(=O)NCC(N)=O; assay: Conversion of GPG-NH2 to GP-OH and G-NH2 by purified CD26; details: other: purified CD26; pH 3.5
Description: In some experiments, approximately, 100 μM GPG-NH2 was exposed to 25 units/l of purified CD26 and the mixture was incubated for up to 400 minutes at room temperature. The lymphocyte surface glycoprotein CD26/dipeptidylpeptidase IV was purified as described before. (See De Meester, J. Immunol. Methods, 189:99-105 (1996), herein expressly incorporated by reference in its entirety). At different time points, an aliquot of the reaction mixture was withdrawn and analyzed on an electrospray ion trap mass spectrometer (Esquire, Bruker, Bremen, Germany). The appearance of the dipeptide GP-OH upon release from the amino terminal end of the GPG-NH2 molecule, as well as, the disappearance of intact GPG-NH2 from the reaction mixture was determined and monitored by electrospray ion trap mass spectometric analysis at different time points (See FIG. 3). Under these experimental conditions, CD26 released GP-OH in a time-dependent manner from GPG-NH2, and virtually completely converted GPG-NH2 to GP-OH and G-NH2 within 4 to 6 hrs of the reaction.
Next, the conversion of radiolabeled [^14C]GPG-NH2 to [^14C]G-NH2 by purified CD26, fetal bovine serum (FBS), human serum (HS) and CEM cell suspensions was analyzed. […] A variety of these [^14C]GPG-NH2 concentrations were exposed to purified CD26, FBS, HS and CEM cell suspensions and the conversion to G-NH2 was analyzed. […]

B1: dipeptidylpeptidase activity associated with FBS (Bos taurus) (protein)
chain: SRRTYTLADYLKNTFRMKFYNLRWVSDHEYLYKQENNILLFNAEYGNSSIFLENSTFDEFGHSINDYSVSPDRQYILFEYNYVKQWRHSYTASYDIYDLNKRQLITEERIPNNTQWITWSSVGHKLAYVWNNDIYVKNEPNSPSQRITWTGKKDVIYNGITDWVYEEEVFSAYSALWWSPNSTFLAYAQFNDTEVPLIEYSFYSDESLQYPKTVKIPYPKAGAVNPTIKFFVVNISSLSPNINATSQQIVPPGSVLIGDHYLCDVTWVTEERISLQWLRRIQNYSIMDICDYDRSTGRWISSVGRQHIEISTTGWVGRFRPAEPHFTSDGNSFYKIISNEEGYKHICHFQTDKRNCTFITKGAWEVIGIEALTSDYLYYISNEYKGMPGARNLYKIQLNDYTKVTCLSCELNPDRCQYYSVSFSQEAKYYQLRCSGPGLPLYTLHNSNNDKELRVLENNSDLDQVLQDVQMPSKKLDFIHLHGTKFWYQMILPPHFDKSKKYPLLLEVYAGPCSQKADAIFRLNWATYLASTENIIVASFDGRGSGYQGDKIMHAINRRLGTFEVEDQIEATRQFSKMGFVDDKRIAIWGWSYGGYVTSMVLGAGSGVFKCGIAVAPVSKWEYYDSVYTERYMGLPTPEDNLDSYRNSTVMSRAENFKQVEYLLIHGTADDNVHFQQSAQISKALVDAGVDFQSMWYTDEDHGIASSTAHQHIYTHMSHFLKQCFSLL
notes: from tissue; host or cells: fetal bovine serum
With B1 the Km [1] was 1400 µM.

B2: dipeptidylpeptidase activity associated with HS (Homo sapiens) (protein)
chain: SRKTYTLTDYLKNTYRLKLYSLRWISDHEYLYKQENNILVFNAEYGNSSVFLENSTFDEFGHSINDYSISPDGQFILLEYNYVKQWRHSYTASYDIYDLNKRQLITEERIPNNTQWVTWSPVGHKLAYVWNNDIYVKIEPNLPSYRITWTGKEDIIYNGITDWVYEEEVFSAYSALWWSPNGTFLAYAQFNDTEVPLIEYSFYSDESLQYPKTVRVPYPKAGAVNPTVKFFVVNTDSLSSVTNATSIQITAPASMLIGDHYLCDVTWATQERISLQWLRRIQNYSVMDICDYDESSGRWNCLVARQHIEMSTTGWVGRFRPSEPHFTLDGNSFYKIISNEEGYRHICYFQIDKKDCTFITKGTWEVIGIEALTSDYLYYISNEYKGMPGGRNLYKIQLSDYTKVTCLSCELNPERCQYYSVSFSKEAKYYQLRCSGPGLPLYTLHSSVNDKGLRVLEDNSALDKMLQNVQMPSKKLDFIILNETKFWYQMILPPHFDKSKKYPLLLDVYAGPCSQKADTVFRLNWATYLASTENIIVASFDGRGSGYQGDKIMHAINRRLGTFEVEDQIEAARQFSKMGFVDNKRIAIWGWSYGGYVTSMVLGSGSGVFKCGIAVAPVSRWEYYDSVYTERYMGLPTPEDNLDHYRNSTVMSRAENFKQVEYLLIHGTADDNVHFQQSAQISKALVDVGVDFQAMWYTDEDHGIASSTAHQHIYTHMSHFIKQCFSLP
notes: from tissue; host or cells: human serum
B2 showed a Km [2] of 450 µM.

B3: CD26/dipeptidylpeptidase IV (Homo sapiens) (protein)
chain: MKTPWKVLLGLLGAAALVTIITVPVVLLNKGTDDATADSRKTYTLTDYLKNTYRLKLYSLRWISDHEYLYKQENNILVFNAEYGNSSVFLENSTFDEFGHSINDYSISPDGQFILLEYNYVKQWRHSYTASYDIYDLNKRQLITEERIPNNTQWVTWSPVGHKLAYVWNNDIYVKIEPNLPSYRITWTGKEDIIYNGITDWVYEEEVFSAYSALWWSPNGTFLAYAQFNDTEVPLIEYSFYSDESLQYPKTVRVPYPKAGAVNPTVKFFVVNTDSLSSVTNATSIQITAPASMLIGDHYLCDVTWATQERISLQWLRRIQNYSVMDICDYDESSGRWNCLVARQHIEMSTTGWVGRFRPSEPHFTLDGNSFYKIISNEEGYRHICYFQIDKKDCTFITKGTWEVIGIEALTSDYLYYISNEYKGMPGGRNLYKIQLSDYTKVTCLSCELNPERCQYYSVSFSKEAKYYQLRCSGPGLPLYTLHSSVNDKGLRVLEDNSALDKMLQNVQMPSKKLDFIILNETKFWYQMILPPHFDKSKKYPLLLDVYAGPCSQKADTVFRLNWATYLASTENIIVASFDGRGSGYQGDKIMHAINRRLGTFEVEDQIEAARQFSKMGFVDNKRIAIWGWSYGGYVTSMVLGSGSGVFKCGIAVAPVSRWEYYDSVYTERYMGLPTPEDNLDHYRNSTVMSRAENFKQVEYLLIHGTADDNVHFQQSAQISKALVDVGVDFQAMWYTDEDHGIASSTAHQHIYTHMSHFIKQCFSLP
notes: made in house; by own knowledge a natural human source (seminal plasma), not recombinant
With B3 the Km [3] was 183 µM.
